Assay results published in publication PMC4252486.

Legend:
Assay in all cases: fluorescence anisotropy
[1] = biological target: NCp7 (mature nucleocapsid) (HIV-1 NL4-3, UniProt P12493 378-432)
NCp15 WT (NCp7-SP2-p6) = NCp15 WT (NCp7-SP2-p6) (HIV-1 NL4-3, UniProt P12493 378-500)
NCp9 (NCp7-SP2) = NCp9 (NCp7-SP2) (HIV-1 NL4-3, UniProt P12493 378-448)

Q: Which Kd [1] does the source give for AGCTGCTTTTTGCCTGTACT (ssDNA) [JL936 (20-nt ssDNA)] here?
A: 176 nM

Q: And the Kd (NCp15 WT (NCp7-SP2-p6))?
A: 151 nM

Q: What about the Kd (NCp9 (NCp7-SP2)) of the same binder?
A: 45 nM
